US20240026017A1 (Kyowa Kirin, published 2024)
Where a chain is given by its changes, count along the chain named.

T1: human CC chemokine receptor 1 (human CCR1) (human, UniProt P32246 1-355)
T1 sequence: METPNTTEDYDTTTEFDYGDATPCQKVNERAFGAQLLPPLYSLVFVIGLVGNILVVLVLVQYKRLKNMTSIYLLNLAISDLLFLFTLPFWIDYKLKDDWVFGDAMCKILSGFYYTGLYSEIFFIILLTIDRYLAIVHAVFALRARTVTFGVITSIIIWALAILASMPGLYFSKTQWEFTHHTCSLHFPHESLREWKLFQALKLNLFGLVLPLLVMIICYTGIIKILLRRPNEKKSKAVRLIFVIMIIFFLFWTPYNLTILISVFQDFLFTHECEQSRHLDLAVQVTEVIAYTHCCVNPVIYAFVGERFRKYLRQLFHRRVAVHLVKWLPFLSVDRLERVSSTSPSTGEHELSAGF

T2: human CCR3 (human, UniProt P51677 1-355)
T2 construct: whole, on cells; also called hCCR3; CHO-S-hCCR3 (expressing cells)
T2 sequence (looked up): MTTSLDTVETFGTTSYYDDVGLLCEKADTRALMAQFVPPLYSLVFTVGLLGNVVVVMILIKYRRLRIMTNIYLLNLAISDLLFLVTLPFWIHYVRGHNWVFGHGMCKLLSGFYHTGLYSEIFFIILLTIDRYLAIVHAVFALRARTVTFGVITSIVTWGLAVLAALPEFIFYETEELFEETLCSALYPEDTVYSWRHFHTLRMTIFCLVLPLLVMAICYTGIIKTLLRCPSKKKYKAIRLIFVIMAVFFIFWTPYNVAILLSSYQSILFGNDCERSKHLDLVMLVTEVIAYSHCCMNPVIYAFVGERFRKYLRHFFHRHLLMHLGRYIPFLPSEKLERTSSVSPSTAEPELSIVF

B1: hzmAb5-06 LV5HV14 antibody (antibody, V domains shown)
VH: QVQLQQSGPGLVKPSQTLSITCTVSGFSLNNYGVHWVRQPPGKGLEWLGVIWSAGTTVYNAAAISRLTISKDTSKNQVSFKMSSLTAADTAVYYCAKDGSRYYTAMDYWGQGTLVTVSS
VL: DVVMTQSPLSLPVTLGEPASISCRSSQSLVHRNGITFFHWYLQKPGQSPKLLIYKISNRFSGVPDRFSGSGSGTDFTLKISRVEAEDVGVYFCSQGTHVPPTFGQGTKLEIK
B2: hzKM5907 LV2bHV3a antibody (antibody, V domains shown)
VH: EVQLLESGGGLVQPGGSLRLSCAASGFTFSRYGMSWVRQAPGKRLEWVSSISATFTYTYYTDNVKGRFTISRDNSKNTLYLQMNSLRAEDTGVYYCARQDNYAWFDSWGQGTLVTVSS
VL: DIVMTQTPLSLPVTSGEPVSISCRSSQSIVHSNGNTFLEWYLKKPGQSPQLLIYKVSSRFSGVPDRFSGSGSGTDFTLKISRVEAEDVGVYYCFQGSHIPWTFGGGTKVEIK
B3: KM5911 antibody (antibody, mouse IgG2b, V domains shown)
VH: DVKLVESGEGLVKPGGSLKLSCAASGFTFSRNAMSWVRQTPEKRMEWVAYISSGGDYIYYADTVKGRFTVSRDNARNTLYLRMSSLKSEDTAMYYCTRFSYGYAKNALDYWGQGTSVTVSS
VL: DIQMTQSPSSLSASLGGKVTITCKASQDIKKYIAWYQHKPGKGPRLLIHYTSSLQPGIPSRFSGSGSGRDYSFSISNLEPEDIATYYCLQYDYLMTFGGGTKLEIK
notes: mouse IgG2b from hybridoma
B4: KM5916 antibody (antibody, mouse IgG2b, V domains shown)
VH: B3 VH with M45L, G55S, R82Q, S84T, K87R, Y95F, A104G, L108P
VL: B3 VL with K30N, K42Q, L94T, K106R
notes: mouse IgG2b from hybridoma
B5: KM5954 antibody (antibody, mouse IgG2a, V domains shown)
VH: QVQLKESGPGLVAPSQSLSITCTVSGFSLPRYTITWVRQPPGKGLEWLGLIRTGGGTIYNSALKSRLSISKDNSKSQVFLKMNSLQSGDTARYYCARNGAYYSKSGSYWYFDVWGTGTTVTVSS
VL: QIVLTQSPAIMSVSLGEEITLTCSASSSVSYMHWYQQKSGTSPKLLIYSTSNLASGVPSRFSGSGSGTFYSLTISSVEAEDAADYYCHQWSSHPCTFGGGTKLEIK
notes: mouse IgG2a from hybridoma
B6: KM5956 antibody (antibody, mouse IgG2a, V domains shown)
VH: B5 VH with P30A, K104N
VL: B5 VL with V13A, S30T, T101A
notes: mouse IgG2a from hybridoma
B7: KM5907 antibody (antibody, mouse IgG1, V domains shown)
VH: EVQVVESGGNLVKPGGSLKLSCSASGFTFSRYGMSWVRQTPDKRLEWVASISATFTYTYYTDNVKGRFTISRDNAKNTLYLQMSSLRSEDTGMYYCTRQDNYAWFDSWGQGTLVTVSA
VL: DVLMTQTPLSLPVSLGDQVSISCRSSQSIVHSNGNTFLEWYLKKPGQSPKLLIYKVSSRFSGVPDRFSGSGSGTDFTLKIRRVEADDLGVYYCFQGSHIPWTFGGGTNLEIK
notes: mouse IgG1 from hybridoma
B8: KM5909 antibody (antibody, mouse IgG1, V domains shown)
VH: EVQLVESGGDLVKPGGSLKLSCAASGFTLSNYGMSWVRQTPDKRLEWVASISIGNYIYYLDSVKGRFTIYRDNAKNTLFLQMRSLKSEDTAMYHCARQGNDYDWFTYWGQGTLVTVSA
VL: B7 VL with V19A, I29V, S32T, F37Y, K43Q, S58N, R81N, D86E, I99L, N108K
notes: mouse IgG1 from hybridoma
B9: KM5915 antibody (antibody, mouse IgG2b, V domains shown)
VH: B8 VH with L29F, N55S, T106A
VL: B7 VL with V19A, S28N, S32T, F37Y, K43Q, S58N, R81S, D86E, I99L, N108K
notes: mouse IgG2b from hybridoma
B10: KM5908 antibody (antibody, mouse IgG2a, V domains shown)
VH: QVQLKQSGPGLVQPSQSLSITCTVSGFSLNNYGVHWVRQPPGKGLEWLGVIWSAGTTVYNAAFISRLSISKDDSKSQVFFKMNSLQAGDTAIYYCAKDGSRYYTAMDYWGQGTSVTVSS
VL: DVVMTQTPRSLPVSLGDQASISCRSRQSLIHSNGITFLHWYLQKAGQSPKLLIYKVSNRFSGVPDRFSGSGSGTDFTLRISRVEAEDLGVYFCSQGTHVPPTFGGGTKLEIK
notes: mouse IgG2a from hybridoma
B11: chKM5908′ mut28 (antibody, V domains shown)
VH: B10 VH with I51T, I64A, Y102A, T104A
VL: DVVMTQTPLSLPVSLGDQASIFCRSSQSLVHRNGITFFHWYLQKPGQSPKLLIYKVSNKFSGVPDRFSGSGSGTDFTLKISRVAPDDLGVYFCSQGTHVPPTFGGGTKLEIK
B12: chKM5908′ mut19 (antibody, V domains shown)
VH: B10 VH with I51T, V58A, I64A
VL: B11 VL with F38A, K59R
B13: chKM5908′ mut30 (antibody, V domains shown)
VH: B10 VH with F63A
VL: B11 VL with F38A, V56I, K59R
B14: chKM5908′ mut22 (antibody, V domains shown)
VH: B10 VH with F63A
VL: B11 VL with V56I, K59R
notes: also called mAb5-06; mAb 5-06
B15: chKM5908′ mut25 (antibody, V domains shown)
VH: B10 VH with I51T
VL: B11 VL
B16: chKM5908′ mut27 (antibody, V domains shown)
VH: B10 VH with I51T, V58A, I64A
VL: B11 VL
B17: chKM5908′ mut29 (antibody, V domains shown)
VH: B10 VH with I51T
VL: B11 VL with F38A, V56I, K59R
B18: chKM5908′ mut23 (antibody, V domains shown)
VH: B10 VH with I51T, V58A, I64A
VL: B11 VL with V56I, K59R
B19: chKM5908′ mut32 (antibody, V domains shown)
VH: B10 VH with I51T, I64A, Y102A, T104A
VL: B11 VL with F38A, V56I, K59R
B20: chKM5908′ mut24 (antibody, V domains shown)
VH: B10 VH with I51T, I64A, Y102A, T104A
VL: B11 VL with V56I, K59R
B21: chKM5908′ mut26 (antibody, V domains shown)
VH: B10 VH with F63A
VL: B11 VL
B22: chKM5908′ mut21 (antibody, V domains shown)
VH: B10 VH with I51T
VL: B11 VL with V56I, K59R
B23: chKM5908′ mut31 (antibody, V domains shown)
VH: B10 VH with I51T, V58A, I64A
VL: B11 VL with F38A, V56I, K59R
B24: chKM5908′ mut20 (antibody, V domains shown)
VH: B10 VH with I51T, I64A, Y102A, T104A
VL: B11 VL with F38A, K59R

biological target: T1, human CC chemokine receptor 1 (human …); assay: cell-based or functional assay

Row | Binder | antibody concentration showing THP-1 migration inhibitory activity
1 | B1 | ≥ 0.3 µg/mL
2 | B2 | ≥ 0.3 µg/mL

biological target: T2, human CCR3; assay: flow cytometry on CHO-S-hCCR3 cells, hybridoma culture supernatant diluted 10-fold
Source text: As test antibodies, each hybridoma culture supernatant diluted 10-fold, an existing mouse anti-human CCR1 monoclonal antibody 53504 antibody (R & D Technologies), and a mouse anti-human CCR3 monoclonal antibody 444-11 antibody (MBL) were used.
Regarding the measurement results, the fluorescence intensity when a certain cell was stained with a certain test antibody (each hybridoma culture supernatant, 53504 antibody or 444-11 antibody) and a secondary antibody was divided by the fluorescence intensity when the cell was stained only with the secondary antibody. […] In Table 2, the results are indicated as A and B, respectively.

Row | Binder | fluorescence intensity ratio (test antibody + secondary / secondary only)
3 | B3 | < 10 fold
4 | B4 | < 10 fold
5 | B5 | < 10 fold
6 | B6 | < 10 fold
7 | B7 | < 10 fold
8 | B8 | < 10 fold
9 | B9 | < 10 fold
10 | B10 | < 10 fold

biological target: T1, human CC chemokine receptor 1 (human …); assay: flow cytometry on CHO-S-hCCR1 cells; bound = fluorescence 10 times or more that of isotype control chDNP1
Procedure: The antigen affinity of the chKM5908′ antibody, which is a VL-substituted chimeric antibody, was measured by flow cytometry using the CHO-S-hCCR1 cells produced in Example 2. The cells were collected by centrifugation, the supernatant was removed, and the cells were suspended in PBS (Staining Medium, hereinafter, abbreviated as SM) containing 2% fetal bovine serum (FBS), 0.05% NaN₃, and 1 mM EDTA. Next, the cells were seeded in a 96-well plate so that the number of cells is 1×10⁵ per well, and the chKM5908′ antibody was added at each final concentration of 10,000, 2,000, 400, 80, 16, and 3.2 ng/mL, and the reaction was performed at 4° C. for 60 minutes. After washing the cells with SM, Goat F (ab′)₂ Anti-Human IgG PE (γ chain specific) (Southern Biotech) diluted 500-fold with SM was added and reacted at 4° C. for 60 minutes. After washing the cells with SM, the cells were resuspended in 50 μL of SM, and the fluorescence intensity was measured by the flow cytometry (FACS Canto II, BD Biosciences).
1996 June; 33 (9):759-68, hereinafter, referred to as chDNP1)] were determined to be bound to the human CCR1.

Row | Binder | binding result
11 | B11 | binds
12 | B12 | binds
13 | B13 | binds
14 | B14 | binds
15 | B15 | binds
16 | B16 | binds
17 | B17 | binds
18 | B18 | binds
19 | B19 | binds
20 | B20 | binds
21 | B21 | binds
22 | B22 | binds
23 | B23 | binds
24 | B24 | binds
